Here are results for one variant from IntAct's records for PubMed 15744310.

First the molecules themselves.
B1: NAD-dependent protein deacetylase sirtuin-1 (Mus musculus), Q923E4 (parent)
chain: MADEVALALQAAGSPSAAAAMEAASQPADEPLRKRPRRDGPGLGRSPGEPSAAVAPAAAGCEAASAAAPAALWREAAGAAASAEREAPATAVAGDGDNGSGLRREPRAADDFDDDEGEEEDEAAAAAAAAAIGYRDNLLLTDGLLTNGFHSCESDDDDRTSHASSSDWTPRPRIGPYTFVQQHLMIGTDPRTILKDLLPETIPPPELDDMTLWQIVINILSEPPKRKKRKDINTIEDAVKLLQECKKIIVLTGAGVSVSCGIPDFRSRDGIYARLAVDFPDLPDPQAMFDIEYFRKDPRPFFKFAKEIYPGQFQPSLCHKFIALSDKEGKLLRNYTQNIDTLEQVAGIQRILQCHGSFATASCLICKYKVDCEAVRGDIFNQVVPRCPRCPADEPLAIMKPEIVFFGENLPEQFHRAMKYDKDEVDLLIVIGSSLKVRPVALIPSSIPHEVPQILINREPLPHLHFDVELLGDCDVIINELCHRLGGEYAKLCCNPVKLSEITEKPPRPQKELVHLSELPPTPLHISEDSSSPERTVPQDSSVIATLVDQATNNNVNDLEVSESSCVEEKPQEVQTSRNVENINVENPDFKAVGSSTADKNERTSVAETVRKCWPNRLAKEQISKRLEGNQYLFVPPNRYIFHGAEVYSDSEDDVLSSSSCGSNSDSGTCQSPSLEEPLEDESEIEEFYNGLEDDTERPECAGGSGFGADGGDQEVVNEAIATRQELTDVNYPSDKS
partner: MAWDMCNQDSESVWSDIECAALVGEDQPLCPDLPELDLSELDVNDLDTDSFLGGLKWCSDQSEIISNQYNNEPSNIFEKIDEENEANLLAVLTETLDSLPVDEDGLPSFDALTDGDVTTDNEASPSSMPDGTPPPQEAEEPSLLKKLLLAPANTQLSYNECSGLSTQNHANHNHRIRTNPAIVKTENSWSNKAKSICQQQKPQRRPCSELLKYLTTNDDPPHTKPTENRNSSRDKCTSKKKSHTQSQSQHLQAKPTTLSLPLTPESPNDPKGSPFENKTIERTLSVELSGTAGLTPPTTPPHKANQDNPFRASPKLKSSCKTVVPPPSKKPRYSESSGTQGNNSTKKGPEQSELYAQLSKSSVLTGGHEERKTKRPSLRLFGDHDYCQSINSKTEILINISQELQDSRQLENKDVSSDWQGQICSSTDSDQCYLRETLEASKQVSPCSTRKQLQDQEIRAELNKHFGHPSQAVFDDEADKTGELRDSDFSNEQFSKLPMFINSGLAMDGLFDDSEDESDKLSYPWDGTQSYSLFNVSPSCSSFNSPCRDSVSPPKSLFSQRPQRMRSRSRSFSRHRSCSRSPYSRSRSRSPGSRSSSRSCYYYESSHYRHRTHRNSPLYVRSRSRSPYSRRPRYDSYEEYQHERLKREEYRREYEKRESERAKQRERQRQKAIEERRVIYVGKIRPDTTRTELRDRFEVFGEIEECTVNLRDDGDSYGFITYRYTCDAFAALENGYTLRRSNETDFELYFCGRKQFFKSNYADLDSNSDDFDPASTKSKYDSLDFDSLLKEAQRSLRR

The variants in this experiment derive from B1. Particulars: with prgc1_human PPARGC1A.
With H355A, the “effect of a mutation on the interaction” value was “decreasing interaction”.
